We go through 30 sequences from the nanobody polyreactivity screen of Harvey et al. (2022).

A short description of the data set: yeast display, Sf9 membrane polyspecificity reagent, FACS + sequencing; frameworks hold sequencing errors. The essentials: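 A nanobody's polyreactivity label depends on the gate it was sorted from. Yeast display cells were stained with 10% biotinylated, detergent-solubilized Sf9 membrane reagent for 1 hour at 4 °C, enriched on streptavidin microbeads and sorted by FACS. The low and high (top ~1%) gates were set on anti-HA fluorescence for expression and streptavidin fluorescence for reagent binding.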
Take “QVQLVESGGGLVQAGGSLRLSCAASGRTFRYYAMGWYRQAPGKERELVAAITGSGGSTYYADSVKGRFTISRDNAKNTVYLQMNSLKPEDTAVYYCATRWALRWRGGYWGQGTQVTVSS”: the “polyreactivity (PSR sort gate)” value is recorded as “high polyreactivity”. Under “QVQLVESGGGLVQAGGSLRLSCAASGRTFRYYAMGWYRQAPGKERELVAAITSGGSTYYADSVKGRFTISRDNAKNTVYLQMNSLKPEDTAVYYDYWGQGTQVTVSS” stands “low polyreactivity”; under “QVQLVESGGGLVQAGGSLRLSCAASGRTFRYYDMGWYRQSPGKERELVARISISGAGTYYADSVKVRFTISRDNAKNNVYLQMNSLKPEDTAVYYCAADLFWWQKTNSGGDYWGQGTQVTVSS”, “low polyreactivity”. Under “QVQLVESGGGLVQAGGSLRLSCAASGRTFRYYTMGWYRPAPGKEREFVSSISWNGGSTYYADSVKGRFTISRDNAKNTVYLQIKSLKPEDTAVYYCSADDPYRVYRGPYGYWGQCTQVTVSS” stands “high polyreactivity”; under “QVQLVESGGGLVQAGGSLRLSCAASGRTFRYYTMGWYRQAPGKEREFVAAISSTGGTYYADSVKGRFTISRDNAKNTVYLQMNCLIPEDTAVYYCAATFIQVVVNVQLYDYDYWGQGTQVTVSS”, “low polyreactivity”; under “QVQLVESGGGLVQAGGSLRLSCAASGRTFRYYTMGWYRQAPGKEREFVAAISSTGGTYYADSVKGRFTISRDNAKNTVYLQMNSLKPEDTAVFYGAATFIQVVVNGQLYDYDYWGQGTQVTVSS”, “low polyreactivity”.

Regarding “QVQLVESGGGLVQAGGSLRLSCAASGRTFRYYTMGWYRQAPGKERELVAAINDSGDITYYADSVKGRFTISRDNAKNTVSLQMNSLKPEDTAVYYCAASAAYYGFYKSVTYDYWGQGTQVTVSS”, the “polyreactivity (PSR sort gate)” value is “low polyreactivity”. The result for “QVQLVESGGGLVQAGGSLRLSCAASGRTFRYYTMGWYRQAPGKERELVAAISRGGRTYYADSVKGRFTISRDNAKNTVYLQMNSLKPEDTAVYYCAAQLFREYYYWGQGTQVTVSS” reads “high polyreactivity”; that for “QVQLVESGGGLVQAGGSLRLSCAASGRTFSANAMGWYRQAPGKERELVAGITSRGGGTYYADSVKGRFTISRDNAKNTVYLQMNSLKPEDTAVYYCAAPYNGGGVHSYWEYDYWGQGTQVTVSS”, “high polyreactivity”; that for “QVQLVESGGGLVQAGGSLRLSCAASGRTFSAYAMVWYRQAPGKERELVAAISRRGGSTYYADSVKGRFTISRDNAKNTVYLQMKSLKPEDTAVYYCAADVYKQYGYYFWGQGTQVTVSS”, “high polyreactivity”. The result for “QVQLVESGGGLVQAGGSLRLSCAASGRTFSDYTMGWYRQAPGKERELFAAISGSVVNTYYADSVKGRFTISRDNAKNTVYLQMNSLKPEDTAVYYCAKDRIFYHYALYRWRVESYYWGQGTQVTVSS” reads “low polyreactivity”; that for “QVQLVESGGGLVQAGGSLRLSCAASGRTFSEYAMGWYRQAPGKERELVAAITENGGSTYYADSVKGRFTISRDIAKNTVYLQMNSLKPEDTAVYYCAAETWADWYSEFYWGQGTLVTVSS”, “high polyreactivity”. Under “QVQLVESGGGLVQAGGSLRLSCAASGRTFSFNGMGWYRQAPGKERELVAAISRRGTSTYYADSVKGRFTISRDNAKNTVYLQMNSLKPEDTAVYYCAARSTYTRREYDYWGQGTQVTVSS” stands “high polyreactivity”; under “QVQLVESGGGLVQAGGSLRLSCAASGRTFSFYAMGWYRQAPGKERELVAAISRGGGSTYYADSVKGRFTISRDNAKNTVYLQMNSLKPEDTAVYYCAAPFLYRRGYDYWGQGTQVTVSS”, “high polyreactivity”; under “QVQLVESGGGLVQAGGSLRLSCAASGRTFSFYAMGWYRQAPGKERELVAGIDWDDGSTSYADSVKGRFTISRDNAKNTVYLQMNSLKPEDTEVYYCAADIGYDVYNDYDYWGQGTQVTVSS”, “low polyreactivity”. As to “QVQLVESGGGLVQAGGSLRLSCAASGRTFSGNALGWSTHAPGKERELVAAITSSGGSTYYADSVKGRFTISRENAKNTVYLQMNSLKPEDTAVYYCNTDPQGRTVVYGGDDYWGQGTQVTVSS”, the “polyreactivity (PSR sort gate)” value is “low polyreactivity”. Under “QVQLVESGGGLVQAGGSLRLSCAASGRTFSGYAMGWYRPAPGKERELVAAITSGGNTYYADSVKGRFTISRDNAKNTVYFQMNILKPEDTAVYYCATVYADESGIEGYSWGQGTQVTVSS” stands “low polyreactivity”; under “QVQLVESGGGLVQAGGSLRLSCAASGRTFSGYAMGWYRQAPGKERELVAAIDRGDGTNYADSVKGRFTISRDNAKNTVYLQMNSLKPEDTAVYYCAADDYWTPFGYWGQGTQVTVSS”, “low polyreactivity”. Under “QVQLVESGGGLVQAGGSLRLSCAASGRTFSGYAMGWYRQAPGKERELVAAITRRGGTTYYADSVKGRFTISRDNAKNTVYLQMNSLKPEDTAVYYCAAAKPRVISQNIIYDYWGQGTQVTVSS” stands “high polyreactivity”; under “QVQLVESGGGLVQAGGSLRLSCAASGRTFSGYAMGWYRQAPGKERELVATITWSSGSTYYADSVKGRFTISRDNAKNTVYLQMNSLKPEDTAVYYCNADQGSALRWSYDYWGQGTQVTVSS”, “low polyreactivity”; under “QVQLVESGGGLVQAGGSLRLSCAASGRTFSGYVMGWYRQAPAKERELVAAIARNGGSRYYADSVKGRFTISRDKAKNTVYLQMNSLTPEDTAVYYCAADASCWRRHYYWGQGTQVTVSS”, “high polyreactivity”. The result for “QVQLVESGGGLVQAGGSLRLSCAASGRTFSHNAMGWYRQAPGKERELVATISWNGGRTYYADSVKGRFTISRDNAKNTVYLQMNSLKPEDTAVYYCADDRIWVLYRTYFSKYGYWGQGTQVTVSS” reads “high polyreactivity”; that for “QVQLVESGGGLVQAGGSLRLSCAASGRTFSHYAMGWYRQAPGKVRELVADISWNGGRTYYADSVKGRFTISRDNAKNTVYLQMNSLKPEDTAVYYCAKVRYWAWSYEYWGQGTQVTVSS”, “high polyreactivity”. For “QVQLVESGGGLVQAGGSLRLSCAASGRTFSIYVMGWYRQAPGKERELVAAITSGGRTYYADSVKGRFTISRDNAKNTVYLQMNSLKPEDTAGYYCAAGYWRPGQYYSRYNYWGQGTQVTVSS”, the “polyreactivity (PSR sort gate)” value is reported as “high polyreactivity”. In the case of “QVQLVESGGGLVQAGGSLRLSCAASGRTFSKYAMGWYRQAPGKERELVAAISKRGDSTYYADSVKGRFTISRDNAKNTVYLQMNSLKPEDTAVYYCARDDYRAYKSYYRYGYWGQGTQVTVSS”, the “polyreactivity (PSR sort gate)” value is “low polyreactivity”. Under “QVQLVESGGGLVQAGGSLRLSCAASGRTFSKYAMGWYRQAPGKERELVAAISSTGGSTYYADSVKGRFTISRDNAKNTVYLQMNSLIPEDTAVYYCATEVYWFHSRAYYYWGQGSQVTVSS” stands “high polyreactivity”; under “QVQLVESGGGLVQAGGSLRLSCAASGRTFSKYAMGWYRQAPGKERELVASITRSGGSTNYADSVKGRFTISRDNAKNTVYLQINSLKPEDTAVYYCRRKLGRTHASGFDYWGQGTQVTVSS”, “low polyreactivity”.

For “QVQLVESGGGLVQAGGSLRLSCAASGRTFSKYTMGWYRQAPGKERELVAAIDRSGGSTYYADSVKGRFSISRDNAKNTVYLQMNSLKPEDTAVYYCNTGLRYYSYRRDYWGQGTQVTVSS”, the “polyreactivity (PSR sort gate)” value is on record as “high polyreactivity”.

For the sequence “QVQLVESGGGLVQAGGSLRLSCAASGRTFSLDAMGWYRQAPWKERELVASITDSTGGSTYYADSVKGRFTISRDNAKNTVYLQMNSLKPEDTAVYYCAAQDSQYSDYQWWFGYWGQGTQVTVSS”, the “polyreactivity (PSR sort gate)” value is listed as “low polyreactivity”.

With “QVQLVESGGGLVQAGGSLRLSCAASGRTFSLNAMGWYRQAPGKEREFVAAISSTGGSTYYADSVKGRFTISRDNAKNTVYLQMNSLKPEDTAVYYCAKRSVYRTALGRYSVAYDYWGQGTQVTVSS”, the “polyreactivity (PSR sort gate)” value is on record as “high polyreactivity”.
